One may read the Kd as the equilibrium constant for the complex coming apart.

Numbering of substitutions follows the chain as printed.

The target of assay [1] is T1, recombinant soluble human TREM2 protein (human TREM2 ECD-FlagHis) (human, UniProt Q9NZC2 19-174).
T1 sequence: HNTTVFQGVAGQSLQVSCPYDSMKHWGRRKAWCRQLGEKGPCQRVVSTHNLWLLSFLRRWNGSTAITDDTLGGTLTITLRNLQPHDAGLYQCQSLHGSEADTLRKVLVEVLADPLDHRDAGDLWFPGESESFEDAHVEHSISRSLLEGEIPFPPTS
The assay can be described thus: Octet BLI binning; competitor: load Ab 5E3. Summed up: (§1)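 Sixteen hybridoma-derived anti-TREM2 antibodies were cross-tested pairwise as load and sandwich antibodies on anti-human Fc biosensors at 25° C. Assay buffer held 10 mM Tris pH 7.6, 150 mM NaCl, 1 mM CaCl₂, 0.1% Triton X-100 and 1 mg/mL BSA.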
(In general: Biolayer interferometry detects binding as a change in optical thickness at a sensor tip.)

For assay [2], the target named is T1, recombinant soluble human TREM2 protein …. Briefly: Octet BLI binning; competitor: load Ab 6E7. Put shortly:
as §1

For assay [3] the target is unchanged. Briefly: Octet BLI binning; competitor: load Ab 13E7. Summed up: as §1
The target is the same in assay [4]. The assay can be described thus: Octet BLI binning; competitor: load Ab 16B8. Put shortly:
as §1

For assay [5] the target is unchanged. Briefly: Octet BLI binning; competitor: load Ab 24G6. Put shortly: as §1
Assay [6] shares this target. Briefly: Octet BLI binning; competitor: load Ab 26F2. Put shortly: as §1
Assay [7] shares this target. Briefly: Octet BLI binning; competitor: load Ab 32E3. Summed up: as §1
For assay [8] the target is unchanged. Briefly: Octet BLI binning; competitor: load Ab 24A10. Summed up: as §1
The target is the same in assay [9]. The assay can be described thus: Octet BLI binning; competitor: load Ab 25F12. Summed up:
as §1

For assay [10] the target is unchanged. Briefly: Octet BLI, antibody on anti-human Fc sensor, 25 C. The method, then: To quantitate the binding affinity of agonist antibodies for human TREM2, association and dissociation rate constants as well as the equilibrium dissociation constant were determined using anti-human Fc (Kinetic) sensors on an Octet® HTX instrument (Pall ForteBio). Agonist anti-TREM2 antibodies were made up in DMEM null media, 250 μL at 10 μg/mL. The, 250 uL of assay buffer (10 mM Tris (pH 7.6), 0.1% Triton X-100, 150 mM NaCl, 1mM CaCl₂, and 1 mg/mL BSA) was added to the antibody solutions to a final volume of 500 μL and final antibody concentration of 5 μg/mL. The anti-human Fc sensor was pre-incubated in 200 μL of the assay buffer for a minimum of 10 minutes. The sensor was then regenerated for 5 seconds in 10 mM glycine pH 1.5. Test agonist anti-TREM2 antibodies were loaded onto the sensor for 2 minutes, and baseline measurements were taken for 2 minutes. […] The recombinant TREM2 proteins were allowed to associate with the antibody-loaded sensor for 10 minutes, and then dissociation was measured for 10 minutes. The assay was conducted at 25° C. Experimental kinetic results were globally fit to a 1:1 binding model in order to determine the association and dissociation rate constants as well as the equilibrium dissociation constant.

The target in assay [11] is T2, soluble human TREM2 protein (TREM2 ECD-huIgG1 Fc fusion protein) (human, UniProt Q9NZC2 19-174, biotinylated).
T2 construct: also called biotinylated soluble human TREM2 protein
T2 sequence: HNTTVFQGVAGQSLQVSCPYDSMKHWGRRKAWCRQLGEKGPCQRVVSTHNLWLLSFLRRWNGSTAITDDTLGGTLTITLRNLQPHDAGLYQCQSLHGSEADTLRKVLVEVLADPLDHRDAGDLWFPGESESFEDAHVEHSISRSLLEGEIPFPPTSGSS
Briefly: ELISA, hybridoma supernatant on captured biotinylated TREM2 ECD-Fc. Background: An ELISA detects its analyte on a solid surface through an enzyme-linked reagent.

B1: 10E3 (antibody, human IgG2, V domains shown)
VH: EVQLVQSGAEVKKPGESLMISCKGSGYSFTNYWIGWVRQMPGKGLEWMGIIYPGDSDTRYSPSFQGQVTISADKSISTAYLQWSSLKASDTAMYFCARRRQGIWGDALDIWGQGTLVTVSS
VL: EIVMTQSPATLSVSPGERATLSCRASQSVSSNLAWFQQKPGQAPRLLIYGASTRATGIPARFSVSGSGTEFTLTISSLQSEDFAFYYCLQDNNWPPTFGPGTKVDIK
notes: human IgG2 from hybridoma
B1: the sandwich binding signal in assay [1] was 0.415; in assay [2] it was -0.012; in assay [3], -0.019; in assay [4], 0.33; in assay [5], 0.317; in assay [6] it was 0.354. For the same molecule, the sandwich binding signal in assay [7] was 0.007; in assay [8] it was 0.38; in assay [9], 0.273. The equilibrium dissociation constant (Kd) in assay [10] amounted to 10.3 nM. Besides, the “OD 450” value in assay [11] was determined as 0.55 OD450.

B2: 13E7 (antibody, human IgG2, V domains shown)
VH: B1 VH with N31S, I110F
VL: B1 VL with F85V
notes: human IgG2 from hybridoma
As to B2, the sandwich binding signal is 0.428 in assay [1]; -0.01 in [2]; -0.017 in assay [3]; 0.329 in assay [4]; 0.338 in assay [5]; 0.363 in assay [6]. The sandwich binding signal in assay [7] is 0.01; in assay [8] it was 0.383; in [9] it was 0.278. For the same molecule, the dissociation constant (Kd) in assay [10] was 11 nM. For the same molecule, the “OD 450” value in [11] stood at 0.73 OD450.

B3: 6E7 (antibody, human IgG2, V domains shown)
VH: EVQLVQSGAEVKKPGESLKISCKGSGYSFTSYWIAWVRQMPGKGLEWMGIIYPGDSDTRYSPSFQGQVTISADKSISTAYLQWSSLKASDTAMYFCARQRTFYYDSSDYFDYWGQGTLVTVSS
VL: DIQMTQSPSSVSASVGDRVTITCRASQGISSWLAWYQQKPGKAPKLLIYAASSLQNGVPSRFSGSGSGTDFTLTISSLQPEDFATYFCQQADSFPRTFGQGTKLEIK
notes: human IgG2 from hybridoma
For B3, the sandwich binding signal in [1] came out at 0.565; in assay [2], 0.009; in [3] it was 0.051; in assay [4], 0.429; in [5], 0.412; in assay [6], 0.506. For the same molecule, the sandwich binding signal in assay [7] came out at 0.079; in assay [8], 0.499; in assay [9] it was 0.371. In addition, in assay [10], the Kd is 2.6 nM. Further, the “OD 450” value in assay [11] came out at 3.17 OD450.

B4: 5E3 (antibody, human IgG2, V domains shown)
VH: QVQLVQSGAEVKKPGASVKVSCKASGYTFTGYYIHWVRQAPGLGLEWMGWINPYSGGTTSAQKFQGRVTMTRDTSISSAYMELSRLRSDDTAVYYCARDGGYLALYGTDVWGQGTTVTVSS
VL: DIQMTQSPSSLSASVGDRVTITCRASQGISNYLAWFQQKPGKAPKSLIYAASSLQSGVPSKFSGSGSGTDFTLTISSLQPEDFATYYCQQYSTYPFTFGPGTKVDIK
notes: human IgG2 from hybridoma
Turning to B4, the sandwich binding signal in [1] is -0.165; in assay [2] it was 0.514; in assay [3], 0.259; in [4] it was -0.047; in assay [5] it was 0.328; in [6], -0.045. For the same molecule, the sandwich binding signal was determined as 0.338 in assay [7], 0.441 in assay [8] and 0.38 in assay [9]. The Kd in assay [10] worked out at 2.1 nM. Moreover, the “OD 450” value in [11] was determined as 3.88 OD450.
